First the molecules themselves.
B1: Serine/threonine-protein kinase LATS1, residues 98 to 141; numbered along this chain, O95835 (parent)
chain: TSEVNPQMLQDLQAAGFDEDMVIQALQKTNNRSIEAAIEFISKM

± gives the uncertainty stated by the source.

The variants in the data set derive from B1. As to the kind of experiment: abundance fitness (aPCA) (normalised: wild type 0, dead -1); higher = more abundant; growth selection in yeast, the domain comes from the species named. The note with it: Homo sapiens.
In the case of TSEVNPQMLQDLQAAGFDEDMVIQALQKTNNRSVEAAIEFISKM [I34V], the abundance fitness turned out to be 0.026 ± 0.034. Consider TSEVNPQMLQDLQAAGFDEDMVIQALQKTNNRSPEAAIEFISKM [I34P], for which the abundance fitness is -0.051 ± 0.045. As for TSEVNPQMLQDLQAAGFDEDMVIQALQKTNNRSMEAAIEFISKM [I34M], the figure is 0.04 ± 0.037.

As to TSEVNPQMLQDLQAAGFDEDMVIQALQKTNNRSQEAAIEFISKM [I34Q], the abundance fitness is -0.09 ± 0.042.

As for TSEVNPQMLQDLQAAGFDEDMVIQALQKTNNRSHEAAIEFISKM [I34H], the abundance fitness is -0.077 ± 0.06. Take TSEVNPQMLQDLQAAGFDEDMVIQALQKTNNRSLEAAIEFISKM [I34L]: the abundance fitness was -0.005 ± 0.037.

For the variant TSEVNPQMLQDLQAAGFDEDMVIQALQKTNNRSAEAAIEFISKM [I34A], the abundance fitness was -0.043 ± 0.034. As for TSEVNPQMLQDLQAAGFDEDMVIQALQKTNNRSCEAAIEFISKM [I34C], the abundance fitness is -0.02 ± 0.043. As for TSEVNPQMLQDLQAAGFDEDMVIQALQKTNNPSIEAAIEFISKM [R32P], the figure is -0.434 ± 0.043; as for TSEVNPQMLQDLQAAGFDEDMVIQALQKTNNKSIEAAIEFISKM [R32K], 0.238 ± 0.1. As for TSEVNPQMLQDLQAAGFDEDMVIQALQKTNNGSIEAAIEFISKM [R32G], the figure is -0.185 ± 0.032. TSEVNPQMLQDLQAAGFDEDMVIQALQKTNNWSIEAAIEFISKM [R32W]: the abundance fitness was -0.484 ± 0.043. The result for TSEVNPQMLQDLQAAGFDEDMVIQALQKTNNTSIEAAIEFISKM [R32T] reads -0.004 ± 0.042. As for TSEVNPQMLQDLQAAGFDEDMVIQALQKTNNASIEAAIEFISKM [R32A], the figure is 0.089 ± 0.039; as for TSEVNPQMLQDLQAAGFDEDMVIQALQKTNNVSIEAAIEFISKM [R32V], 0.017 ± 0.036; as for TSEVNPQMLQDLQAAGFDEDMVIQALQKTNNDSIEAAIEFISKM [R32D], -0.26 ± 0.042. TSEVNPQMLQDLQAAGFDEDMVIQALQKTNNHSIEAAIEFISKM [R32H]: the abundance fitness stood at 0.045 ± 0.078. As for TSEVNPQMLQDLQAAGFDEDMVIQALQKTNNCSIEAAIEFISKM [R32C], the figure is 0.007 ± 0.068; as for TSEVNPQMLQDLQAAGFDEDMVIQALQKTNNMSIEAAIEFISKM [R32M], -0.107 ± 0.05. Take TSEVNPQMLQDLQAAGFDEDMVIQALQKTNNESIEAAIEFISKM [R32E]: the abundance fitness came out at 0.095 ± 0.042. As for TSEVNPQMLQDLQAAGFDEDMVIQALQKTNNYSIEAAIEFISKM [R32Y], the figure is -0.222 ± 0.18.

Regarding TSEVNPQMLQDLQAAGFDEDMVIQALQKTNNRSIEDAIEFISKM [A36D], the abundance fitness is -0.068 ± 0.058. The result for TSEVNPQMLQDLQAAGFDEDMVIQALQKTNNRSIECAIEFISKM [A36C] reads -0.169 ± 0.041. TSEVNPQMLQDLQAAGFDEDMVIQALQKTNNRSIEGAIEFISKM [A36G]: the abundance fitness was -0.195 ± 0.031. The result for TSEVNPQMLQDLQAAGFDEDMVIQALQKTNNRSIEFAIEFISKM [A36F] reads -0.77 ± 0.085.

As for TSEVNPQMLQDLQAAGFDEDMVIQALQKTNMRSIEAAIEFISKM [N31M], the abundance fitness is -0.484 ± 0.063. For TSEVNPQMLQDLQAAGFDEDMVIQALQKTNKRSIEAAIEFISKM [N31K], the abundance fitness was -0.699 ± 0.12. As for TSEVNPQMLQDLQAAGFDEDMVIQALQKTNCRSIEAAIEFISKM [N31C], the figure is -0.139 ± 0.041; as for TSEVNPQMLQDLQAAGFDEDMVIQALQKTNGRSIEAAIEFISKM [N31G], -0.155 ± 0.03; as for TSEVNPQMLQDLQAAGFDEDMVIQALQKTNQRSIEAAIEFISKM [N31Q], -0.63 ± 0.089. As to TSEVNPQMLQDLQAAGFDEDMVIQALQKTNARSIEAAIEFISKM [N31A], the abundance fitness was -0.416 ± 0.035. The result for TSEVNPQMLQDLQAAGFDEDMVIQALQKTNIRSIEAAIEFISKM [N31I] reads -0.577 ± 0.21. The result for TSEVNPQMLQDLQAAGFDEDMVIQALQKTNWRSIEAAIEFISKM [N31W] reads -0.557 ± 0.046.

For the variant TSEVNPQMLQDLQAAGFDEDMVIQALQKTNTRSIEAAIEFISKM [N31T], the abundance fitness was -0.645 ± 0.069. As to TSEVNPQMLQDLQAAGFDEDMVIQALQKTNSRSIEAAIEFISKM [N31S], the abundance fitness came to 0.049 ± 0.038. As to TSEVNPQMLQDLQAAGFDEDMVIQALQKTNPRSIEAAIEFISKM [N31P], the abundance fitness is -0.459 ± 0.048.

Regarding TSEVNPQMLQDLQAAGFDEDMVIQALQKTNERSIEAAIEFISKM [N31E], the abundance fitness is -0.253 ± 0.042.

Turning to TSEVNPQMLQDLQAAGFDEDMVIQALQKTNLRSIEAAIEFISKM [N31L], the abundance fitness was -0.75 ± 0.049. Regarding TSEVNPQMLQDLQAAGFDEDMVIQALQKTNRRSIEAAIEFISKM [N31R], the abundance fitness is -0.845 ± 0.046. As for TSEVNPQMLQDLQAAGFDEDMVIQALQKTNDRSIEAAIEFISKM [N31D], the figure is -0.506 ± 0.081; as for TSEVNPQMLQDLQAAGFDEDMVIQALQKTNNRPIEAAIEFISKM [S33P], -0.627 ± 0.06. Take TSEVNPQMLQDLQAAGFDEDMVIQALQKTNNRRIEAAIEFISKM [S33R]: the abundance fitness was -0.907 ± 0.058. The result for TSEVNPQMLQDLQAAGFDEDMVIQALQKTNNRKIEAAIEFISKM [S33K] reads -0.528 ± 0.097.

For TSEVNPQMLQDLQAAGFDEDMVIQALQKTNNREIEAAIEFISKM [S33E], the abundance fitness is -0.665 ± 0.086.

Consider TSEVNPQMLQDLQAAGFDEDMVIQALQKTNNRTIEAAIEFISKM [S33T], for which the abundance fitness was -0.555 ± 0.063. As to TSEVNPQMLQDLQAAGFDEDMVIQALQKTNNRCIEAAIEFISKM [S33C], the abundance fitness is -0.467 ± 0.09.

With TSEVNPQMLQDLQAAGFDEDMVIQALQKTNNRGIEAAIEFISKM [S33G], the abundance fitness was -0.136 ± 0.035. As for TSEVNPQMLQDLQAAGFDEDMVIQALQKTNNRYIEAAIEFISKM [S33Y], the figure is -0.735 ± 0.14; as for TSEVNPQMLQDLQAAGFDEDMVIQALQKTNNRWIEAAIEFISKM [S33W], -1.12 ± 0.11. TSEVNPQMLQDLQAAGFDEDMVIQALQKTNNRLIEAAIEFISKM [S33L]: the abundance fitness was -1.25 ± 0.092. As for TSEVNPQMLQDLQAAGFDEDMVIQALQKTNNRQIEAAIEFISKM [S33Q], the figure is -1.02 ± 0.11.

Regarding TSEVNPQMLQDLQAAGFDEDMVIQALQKTNNRMIEAAIEFISKM [S33M], the abundance fitness was -0.96 ± 0.083. The result for TSEVNPQMLQDLQAAGFDEDMVIQALQKTNNRVIEAAIEFISKM [S33V] reads -1.29 ± 0.13; that for TSEVNPQMLQDLQAAGFDEDMVIQALQKTNNRAIEAAIEFISKM [S33A], -0.797 ± 0.055; that for TSEVNPQMLQDLQAAGFDEDMVIQALQKTNNRNIEAAIEFISKM [S33N], -0.56 ± 0.3.

Regarding TSEVNPQMLQDLQAAGFDEDMVIQALQKTNNRHIEAAIEFISKM [S33H], the abundance fitness was -0.934 ± 0.11. The result for TSEVNPQMLQDLQAAGFDEDMVIQALQKTNNRDIEAAIEFISKM [S33D] reads -0.4 ± 0.05; that for TSEVNPQMLQDLQAAGFDEDMVIQALQKTNNRFIEAAIEFISKM [S33F], -0.628 ± 0.16.
